In publication doi:10.1101/648071 (bioRxiv, 2019):
Values joined by “and” are separate entries in the source; they are usually repeats but may differ in a detail not shown here. Identical values can stand only once. Like-named read-outs stand apart in the source and are kept apart here.

Experiments:
[1] = molecular target: SpaO-2SpaOC heterotrimer (Salmonella Typhimurium strain SL1344) (UniProt P40699); assay: native MS
[2] = molecular target: SpaO-2SpaOC heterotrimer (Salmonella Typhimurium strain SL1344) (UniProt P40699); assay: native MS; remark: listed apart in the source
[3] = molecular target: InvC, full-length, C-terminal Strep-tag (Salmonella Typhimurium strain SL1344) (UniProt P0A1B9); assay: native MS
Chain of InvC, full-length, C-terminal Strep-tag (Salmonella Typhimurium strain SL1344) (P0A1B9 whole entry, the tested form may be a part): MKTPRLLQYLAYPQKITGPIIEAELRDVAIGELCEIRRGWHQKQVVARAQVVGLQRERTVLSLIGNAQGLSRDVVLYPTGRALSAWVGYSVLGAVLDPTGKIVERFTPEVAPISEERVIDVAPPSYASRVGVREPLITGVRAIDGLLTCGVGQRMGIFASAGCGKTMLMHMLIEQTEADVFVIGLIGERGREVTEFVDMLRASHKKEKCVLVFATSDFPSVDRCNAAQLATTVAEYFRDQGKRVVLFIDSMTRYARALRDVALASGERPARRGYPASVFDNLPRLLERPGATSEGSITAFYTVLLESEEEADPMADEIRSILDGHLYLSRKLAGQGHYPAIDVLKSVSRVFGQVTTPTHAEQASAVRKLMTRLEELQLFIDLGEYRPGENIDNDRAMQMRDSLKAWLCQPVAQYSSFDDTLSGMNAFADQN

[4] = molecular target: OrgB (co-expressed with Strep-tagged InvC or InvC fragments) (Salmonella Typhimurium strain SL1344); assay: native MS
[5] = molecular target: OrgB, C-terminal His-tag (co-expressed with spaO) (Salmonella Typhimurium strain SL1344); assay: native MS
[6] = molecular target: T1, SpaO, full-length, C-terminal Strep-tag (Salmonella Typhimurium strain SL1344, UniProt P40699 1-303); assay: native MS
T1 sequence (looked up): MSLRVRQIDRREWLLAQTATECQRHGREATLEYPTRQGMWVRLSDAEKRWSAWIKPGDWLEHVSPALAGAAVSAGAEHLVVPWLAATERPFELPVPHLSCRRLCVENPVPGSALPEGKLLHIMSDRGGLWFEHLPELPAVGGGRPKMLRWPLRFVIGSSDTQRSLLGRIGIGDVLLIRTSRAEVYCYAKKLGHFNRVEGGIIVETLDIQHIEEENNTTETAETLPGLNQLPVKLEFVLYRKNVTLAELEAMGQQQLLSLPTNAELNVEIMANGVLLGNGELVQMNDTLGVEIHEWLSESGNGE

[7] = molecular target: T2, SpaO N-terminal domain (SpaO 1-145) (Salmonella Typhimurium strain SL1344, UniProt P40699 1-145); assay: ITC
T2 sequence (looked up): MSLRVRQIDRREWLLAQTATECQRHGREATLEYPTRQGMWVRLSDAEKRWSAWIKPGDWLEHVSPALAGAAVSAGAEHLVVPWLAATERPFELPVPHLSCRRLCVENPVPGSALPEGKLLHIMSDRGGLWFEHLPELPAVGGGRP

[8] = molecular target: T2, SpaO N-terminal domain (SpaO 1-145); assay: SEC-MALS
[9] = molecular target: T2, SpaO N-terminal domain (SpaO 1-145); assay: native MS
[10] = molecular target: T3, SpaO SPOA1-SPOA2 construct (SpaO 140-297) (Salmonella Typhimurium strain SL1344, UniProt P40699 140-297); assay: native MS
T3 sequence (looked up): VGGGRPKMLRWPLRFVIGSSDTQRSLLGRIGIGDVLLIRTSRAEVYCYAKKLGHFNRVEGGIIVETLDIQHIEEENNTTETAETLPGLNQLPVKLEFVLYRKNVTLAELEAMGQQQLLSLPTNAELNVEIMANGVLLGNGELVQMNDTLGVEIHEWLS

native MS = molecular target: the molecule itself; assay: native MS
[11] = molecular target: T4, SpaO in the SpaO/SpaOC/OrgB/InvC complex (spaO+orgB+invC co-expression) (Salmonella Typhimurium strain SL1344, UniProt P40699 1-303); assay: native MS
T4 sequence (looked up): T1 sequence (looked up)

SpaO-2SpaOC heterotrimer (from UniProt P40699 1-303; P40699 203-303) (complex)
stoichiometry N [1]: 2
stoichiometry N [2]: 2

OrgB (co-expressed with Strep-tagged InvC or InvC fragments) (natural protein)
stoichiometry N (OrgB per InvC) [3]: 2
stoichiometry N [4]: 2

OrgB, C-terminal His-tag (co-expressed with spaO) (natural protein)
stoichiometry N [5]: 2

B1: SpaOC, short product of the spaO gene, C-terminal Strep-tag (natural protein, Salmonella Typhimurium strain SL1344, UniProt P40699 203-303, looked up)
chain: METLDIQHIEEENNTTETAETLPGLNQLPVKLEFVLYRKNVTLAELEAMGQQQLLSLPTNAELNVEIMANGVLLGNGELVQMNDTLGVEIHEWLSESGNGE
stoichiometry N [6]: 2 SpaOC per SpaO
Kd [7]: 1040 ± 210 nM
stoichiometry N [8]: 2 SpaOC per SpaO(1-145)
stoichiometry N [9]: 4 SpaOC per SpaO(1-145)
stoichiometry N [10]: 2 SpaOC per SpaO(140-297)
stoichiometry N (native MS): 2 and 4

B2: SpaOC in the SpaO/SpaOC/OrgB/InvC complex (spaO+orgB+invC co-expression) (natural protein, Salmonella Typhimurium strain SL1344, UniProt P40699 203-303, looked up)
chain: B1 chain
stoichiometry N [11]: 2 SpaOC per SpaO
